Data: article PMC12704761, “RAD51AP1 is a versatile RAD51 modulator” (Proceedings of the National Academy of Sciences of the …, 2025)

B2: RAD51 recombinase (natural protein)
chain: MAMQMQLEANADTSVEEESFGPQPISRLEQCGINANDVKKLEEAGFHTVEAVAYAPKKELINIKGISEAKADKILAEAAKLVPMGFTTATEFHQRRSEIIQITTGSKELDKLLQGGIETGSITEMFGEFRTGKTQICHTLAVTCQLPIDRGGGEGKAMYIDTEGTFRPERLLAVAERYGLSGSDVLDNVAYARAFNTDHQTQLLYQASAMMVESRYALLIVDSATALYRTDYSGRGELSARQMHLARFLRMLLRLADEFGVAVVITNQVVAQVDGAAMFAADPKKPIGGNIIAHASTTRLYLRKGRGETRICKIYDSPCLPEAEAMFAINADGVGDAKD
notes: RAD51 recombinase, wild type; expressed from the pCH1-derived plasmid pJ9; In the cryo-EM samples it stood as a filament on ssDNA with Ca2+-ATP, Mg2+-ATP or Mg2+-ADP; the introduction speaks of the human genome and the discussion sets 'mouse proteins' of earlier work apart; source: E. coli BL21 (DE3), coexpressed with His-MBP-BRC4 and GroEL, purified (HisTrap, HiTrap Heparin, HiTrap Q)

Assays:
RAD51 recombinase = target: B2; assay: cryo-EM structure; RAD51-ssDNA filaments formed with Mg2+-ATP (7 µM RAD51) mixed with C29 (28 µM); single particle analysis, 3.0 Å; details: both partners purified
[1] = target: T1, RAD51AP1 (RAD51 associated protein 1), full-length wild type (UniProt Q96B01 1-352); assay: BLI; RAD51AP1 with C-terminal hexahistidine tag on nickel-NTA biosensors, RAD51 2.5 µM to 39 nM, Octet Red, 25 °C, Kd from response against concentration, 1:1 model; details: both partners purified
T1 construct: RAD51AP1, synthetic gene from Invitrogen; printed residue numbers (H346); One of PDB 9QN8, 9QNA, 9QNB, 9QNC holds its modelled residues; Detailed protocols are in SI Appendix, Supplementary Methods; also called WT; source: expressed from a pET28 vector, purified (HisTrap, HiTrap Heparin, HiTrap Q, gel filtration); not shown: His6, C-terminal, kept
T1 sequence (looked up): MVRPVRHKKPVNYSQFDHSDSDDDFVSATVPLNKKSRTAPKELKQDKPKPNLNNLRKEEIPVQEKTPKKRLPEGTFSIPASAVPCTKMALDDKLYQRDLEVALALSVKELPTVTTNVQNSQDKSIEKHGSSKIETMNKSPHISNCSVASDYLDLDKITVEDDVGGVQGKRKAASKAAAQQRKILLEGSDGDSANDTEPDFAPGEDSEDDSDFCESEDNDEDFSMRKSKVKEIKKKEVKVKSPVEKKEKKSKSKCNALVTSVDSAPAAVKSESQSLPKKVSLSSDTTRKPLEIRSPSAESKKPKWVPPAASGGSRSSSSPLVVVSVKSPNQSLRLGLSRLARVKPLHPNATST

[2] = target: T2, RAD51AP1-H346A (Site-C mutant), full-length (UniProt Q96B01 1-352, H346A); assay: as above; details: both partners purified
T2 construct: RAD51AP1 with H346A; source: expressed from a pET28 vector, purified (HisTrap, HiTrap Heparin, HiTrap Q, gel filtration); not shown: His6, C-terminal, kept
T2 sequence (looked up): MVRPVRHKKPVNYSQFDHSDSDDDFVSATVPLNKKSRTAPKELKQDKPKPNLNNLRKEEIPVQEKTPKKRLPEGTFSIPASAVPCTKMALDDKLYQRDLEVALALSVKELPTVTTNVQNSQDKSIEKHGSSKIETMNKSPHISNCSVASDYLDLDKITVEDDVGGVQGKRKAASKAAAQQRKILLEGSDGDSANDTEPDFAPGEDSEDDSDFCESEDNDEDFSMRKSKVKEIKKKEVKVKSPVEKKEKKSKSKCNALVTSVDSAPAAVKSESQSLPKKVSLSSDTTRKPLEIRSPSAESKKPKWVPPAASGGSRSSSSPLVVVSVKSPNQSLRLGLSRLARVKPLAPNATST

[3] = target: T3, RAD51AP1 Site-NC double mutant, full-length (UniProt Q96B01 1-352, K300 to alanine | K303 to alanine | W304 to alanine | P306 to alanine | P307 to …); assay: as above; details: both partners purified
T3 construct: RAD51AP1 in which both Site-N (K300, K303, W304, P306, P307 to alanine) and Site-C (H346A) are mutated; also called Site-N and Site-C double mutant; source: expressed from a pET28 vector, purified (HisTrap, HiTrap Heparin, HiTrap Q, gel filtration); not shown: His6, C-terminal, kept
T3 sequence (looked up): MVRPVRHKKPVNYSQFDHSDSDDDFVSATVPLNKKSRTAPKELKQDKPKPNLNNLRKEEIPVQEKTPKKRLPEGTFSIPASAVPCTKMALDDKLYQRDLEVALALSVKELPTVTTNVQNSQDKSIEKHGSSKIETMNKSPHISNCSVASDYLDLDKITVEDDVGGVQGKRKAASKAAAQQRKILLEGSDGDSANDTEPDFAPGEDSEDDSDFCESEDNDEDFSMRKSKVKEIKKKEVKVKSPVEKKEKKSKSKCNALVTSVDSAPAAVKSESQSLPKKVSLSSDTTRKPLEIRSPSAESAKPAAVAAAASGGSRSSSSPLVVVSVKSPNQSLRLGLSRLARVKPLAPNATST

[4] = target: T4, RAD51AP1 Site-N mutant, full-length (UniProt Q96B01 1-352, K300 to alanine | K303 to alanine | W304 to alanine | P306 to alanine | P307 to …); assay: pull-down; His-tagged full-length RAD51AP1 (1 µM) immobilised on magnetic cobalt resin, RAD51 (1 µM) in pull-down buffer with ATP and Mg2+, 37 °C, 5 min; SDS-PAGE of supernatant and eluate; details: both partners purified
T4 construct: RAD51AP1 with five conserved Site-N residues (K300, K303, W304, P306, P307) mutated to alanine; source: expressed from a pET28 vector, purified (HisTrap, HiTrap Heparin, HiTrap Q, gel filtration); not shown: His6, C-terminal, kept
T4 sequence (looked up): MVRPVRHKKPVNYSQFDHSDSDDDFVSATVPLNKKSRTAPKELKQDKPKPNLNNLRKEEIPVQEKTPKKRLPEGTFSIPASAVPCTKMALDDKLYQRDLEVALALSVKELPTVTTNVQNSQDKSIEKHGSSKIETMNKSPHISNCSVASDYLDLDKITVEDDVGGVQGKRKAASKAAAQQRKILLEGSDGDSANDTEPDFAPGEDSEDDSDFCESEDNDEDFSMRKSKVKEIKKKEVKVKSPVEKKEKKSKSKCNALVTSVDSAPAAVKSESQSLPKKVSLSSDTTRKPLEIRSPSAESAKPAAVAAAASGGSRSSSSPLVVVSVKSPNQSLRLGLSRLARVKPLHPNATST

[5] = target: T5, RAD51 recombinase, Q06609; assay: pull-down; details: chain shown with the change; n = 3; parent: est. 54; read off a plot
T5 chain: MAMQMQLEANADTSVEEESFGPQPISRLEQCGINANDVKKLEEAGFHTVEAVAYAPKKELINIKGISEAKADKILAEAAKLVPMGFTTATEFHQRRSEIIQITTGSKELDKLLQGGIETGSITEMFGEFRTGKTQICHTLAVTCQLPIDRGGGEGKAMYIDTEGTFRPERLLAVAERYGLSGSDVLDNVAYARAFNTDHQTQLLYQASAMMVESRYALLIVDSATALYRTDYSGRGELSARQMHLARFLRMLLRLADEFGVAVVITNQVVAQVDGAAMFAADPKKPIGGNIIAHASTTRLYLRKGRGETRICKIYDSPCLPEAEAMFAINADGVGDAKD

B1: RAD51AP1 C29 (domain or fragment, UniProt Q96B01 324-352, looked up)
chain: SVKSPNQSLRLGLSRLARVKPLHPNATST
notes: RAD51AP1, C-terminal 29 residues; lacks Site-N, contains Site-M and Site-C; One of PDB 9QN8, 9QNA, 9QNB, 9QNC holds it; also called RAD51AP1 C29 fragment; RAD51AP1 C-terminal domain
B1: binds (RAD51 recombinase).

B2 was tested, and the Kd [1] was about 600 nM, the “fold decrease in binding affinity against wild-type RAD51AP1” value [2] was about 2.5 fold and the “fold reduction in affinity against wild-type RAD51AP1” value [3] was about 4 fold. B2: binds [4].

B3: RAD51AP1 C59, wild type K300A; K303A; W304A; P306A; P307A (protein)
chain: SPSAESAKPAAVAAAASGGSRSSSSPLVVVSVKSPNQSLRLGLSRLARVKPLHPNATST
In the case of B3, the response [5] is reported as 60%.
